Consider five molecules from paper PMC10542344 (2023).

In general, koff refers to a measure of how fast the partners let go of each other. In general, Kd refers to a measure of binding affinity in units of concentration.

Read-outs that look alike come from different tables or passages of the source.

What all share (assay): SPR
(Surface plasmon resonance follows binding to a sensor surface in real time, without labels.)

Assay [1] has as its target T1, human IL-17A (recombinant) (human, UniProt Q16552 24-155).
In assay [2] the target is T1, human IL-17A (recombinant). The source holds these as a separate data set.
Assay [3] addresses T1, human IL-17A (recombinant). This is another data set of the same source.

T1 sequence (Q16552 24-155): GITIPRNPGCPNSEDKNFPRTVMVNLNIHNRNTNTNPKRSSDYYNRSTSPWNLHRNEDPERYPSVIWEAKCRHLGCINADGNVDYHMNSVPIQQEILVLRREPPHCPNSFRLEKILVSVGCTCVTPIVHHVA

B1: BDG11.007 (human IgG1) (antibody, V domains shown)
VH: EVQLVQSGAEVKKPGESLKISCKGSGYSFTSYWIGWVRQMPGKGLEWMGIIYPSDSDTRYSPSFQGQVTISADKSISTAYLQWSSLKASDTAMYYCARYPNYGAFDIWGQGTMVTVSS
VL: EIVLTQSPATLSLSPGERATLSCRASQSVWSYLAWYQQKPGQAPRLLIYDASNRATGIPARFSGSGSGTDFTLTISSLEPEDFAVYYCQQYFNWGWPFGQGTKLEIK
Turning to B1, in assay [1], the koff turned out to be 0.0045 s⁻¹. Moreover, the Kd in assay [2] was 2.61 nM.

B2: BDG11.003 (human IgG1) (antibody, V domains shown)
VH: EVQLVQSGAEVKKPGESLKISCKGSGYSFTSYWIGWVRQMPGKGLEWMGIIYPSDSDTRYSPSFQGQVTISADKSISTAYLQWSSLKASDTAMYYCARYPNYGAFDIWGQGTMVTVSS
VL: EIVLTQSPATLSLSPGERATLSCRASQSVFSYLAWYQQKPGQAPRLLIYDASNRATGIPARFSGSGSGTDFTLTISSLEPEDFAVYYCQQYFYWGWPFGQGTKLEIK
As to B2, in assay [1], the koff was 0.000641 s⁻¹. In addition, the Kd in assay [2] worked out at 0.935 nM.

B3: BDG11.004 (human IgG1) (antibody, V domains shown)
VH: EVQLVQSGAEVKKPGESLKISCKGSGYSFTSYWIGWVRQMPGKGLEWMGIIYPSDSDTRYSPSFQGQVTISADKSISTAYLQWSSLKASDTAMYYCARYPNYGAFDIWGQGTMVTVSS
VL: EIVLTQSPATLSLSPGERATLSCRASQSVSSYLAWYQQKPGQAPRLLIYDASNRATGIPARFSGSGSGTDFTLTISSLEPEDFAVYYCQQYFYWGWPFGQGTKLEIK
On to B3, for which the koff in assay [1] was 0.00221 s⁻¹. For the same molecule, the Kd in assay [2] came to 8.69 nM.

B4: BDG11.001 (clone 11.4C_11.001 as soluble human IgG1) (antibody, V domains shown)
VH: EVQLVQSGAEVKKPGESLKISCKGSGYSFTSYWIGWVRQMPGKGLEWMGIIYPSDSDTRYSPSFQGQVTISADKSISTAYLQWSSLKASDTAMYYCARYPNYGAFDIWGQGTMVTVSS
VL: EIVLTQSPATLSLSPGERATLSCRASQSVWSYLAWYQQKPGQAPRLLIYDASNRATGIPARFSGSGSGTDFTLTISSLEPEDFAVYYCQQYFYWGWPFGQGTKLEIK
On to B4, for which, in assay [3], the koff is 0.000634 s⁻¹.

B5: BDG11.006 (human IgG1) (antibody, V domains shown)
VH: EVQLVQSGAEVKKPGESLKISCKGSGYSFTSYWIGWVRQMPGKGLEWMGIIYPSDSDTRYSPSFQGQVTISADKSISTAYLQWSSLKASDTAMYYCARYPNYGAFDIWGQGTMVTVSS
VL: EIVLTQSPATLSLSPGERATLSCRASQSVWSYLAWYQQKPGQAPRLLIYDASNRATGIPARFSGSGSGTDFTLTISSLEPEDFAVYYCQQYFYNGWPFGQGTKLEIK
Regarding B5, the koff in assay [1] came to 0.0009 s⁻¹. Also, the Kd in assay [2] was found to be 0.697 nM.
